Results from PMC6816099, “The finger loop of the SRA domain in the E3 ligase UHRF1 is a regulator of ubiquitin targeting and is required for the maintenance of DNA methylation”.

How the values were obtained:
[1] = target: UHRF1 SRA SUVH5 finger swap (/ A. thaliana finger loop) (UniProt Q96T88); assay: fluorescence polarization; conditions: 0.05% NP-40, 10 nM FAM-DNA (temperature not stated), ITC: 25 mM HEPES, 1 mM DTT, 25 C
[2] = target: T1, UHRF1 SRA (WT) (UniProt Q96T88 414-616); assay: ITC; 35 uM protein in cell, 430 uM DNA in syringe; n 0.5-1.0; FP: 25 mM HEPES pH 7.5, 100 mM NaCl, 0.05% NP-40, 10 nM FAM-DNA (temperature not stated); ITC: 25 mM HEPES, 100 mM NaCl, 1 mM DTT, 25 C; conditions: protein: recombinant; tags: N-terminal His6-MBP (retained); blunt
T1 sequence: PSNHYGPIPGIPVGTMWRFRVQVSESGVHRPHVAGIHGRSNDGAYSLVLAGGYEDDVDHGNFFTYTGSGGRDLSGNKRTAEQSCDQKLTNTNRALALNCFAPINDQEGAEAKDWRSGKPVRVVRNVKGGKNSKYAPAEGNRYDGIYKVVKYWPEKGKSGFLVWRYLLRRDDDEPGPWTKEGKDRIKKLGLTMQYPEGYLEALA

Sequence of UHRF1 SRA SUVH5 finger swap (/ A. thaliana finger loop) (Q96T88 whole entry): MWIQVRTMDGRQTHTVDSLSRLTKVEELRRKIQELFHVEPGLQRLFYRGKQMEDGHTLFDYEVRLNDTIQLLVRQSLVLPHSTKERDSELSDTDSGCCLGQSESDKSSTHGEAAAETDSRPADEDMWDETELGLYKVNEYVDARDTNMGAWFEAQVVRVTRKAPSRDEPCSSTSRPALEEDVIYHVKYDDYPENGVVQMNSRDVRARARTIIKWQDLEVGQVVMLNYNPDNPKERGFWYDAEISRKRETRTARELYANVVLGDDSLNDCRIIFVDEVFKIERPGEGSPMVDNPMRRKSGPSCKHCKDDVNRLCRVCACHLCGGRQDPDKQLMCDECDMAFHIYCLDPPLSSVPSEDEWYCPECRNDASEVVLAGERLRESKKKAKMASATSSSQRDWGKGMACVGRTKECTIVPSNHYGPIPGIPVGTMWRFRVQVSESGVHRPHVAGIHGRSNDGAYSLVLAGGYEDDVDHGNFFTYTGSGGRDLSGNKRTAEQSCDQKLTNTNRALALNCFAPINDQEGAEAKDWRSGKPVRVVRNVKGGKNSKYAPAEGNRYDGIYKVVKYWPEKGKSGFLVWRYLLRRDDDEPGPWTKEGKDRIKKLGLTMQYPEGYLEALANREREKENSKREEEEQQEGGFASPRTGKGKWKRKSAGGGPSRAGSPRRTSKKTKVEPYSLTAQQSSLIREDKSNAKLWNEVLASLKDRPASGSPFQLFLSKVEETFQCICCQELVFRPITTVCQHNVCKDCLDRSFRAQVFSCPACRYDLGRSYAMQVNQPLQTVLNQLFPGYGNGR

CCATGCGCTGAC (double strand) [Sy5mC] showed a Kd ([1]; 5mC at position 6 of strand 1 and position 6 of strand 2, FP: 25 mM HEPES pH 7.5, 100 mM NaCl) of 200 nM.

CCATGCGCTGAC (double strand) [UnDNA] was tested, and the Kd ([1]; FP: 25 mM HEPES pH 7.5, 100 mM NaCl) was 200 nM.

“CCATGCGCTGAC (double strand) [He5mC (FAM)]” showed a Kd ([1]; 5mC at position 6 of strand 1, FP: 25 mM HEPES pH 7.5, 100 mM NaCl) of 200 nM.

B1: He5mC (unlabelled, ITC) (dsDNA)
DNA 1: CCATGCGCTGAC
DNA 2: GTCAGCGCATGG
modifications: 5mC at position 6 of strand 1
B1: binds [2].
